Laboratory results from patent publication US20250145684A1 (IMMATICS BIOTECHNOLOGIES, published 2025).

What was measured:
Assay in all cases: UV peptide exchange ELISA
HLA-B*08:01 = biological target: T1, HLA-B*08:01 (human)
T1 construct: MHC monomer first loaded with a UV-sensitive peptide that is cleaved by UV light and exchanged for the test peptide
Outline: (§1)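 Peptide–MHC complexes formed by UV-mediated exchange of a photocleavable ligand; exchange yield assessed by ELISA on streptavidin-coated plates, samples diluted 100-fold. Bound complexes detected with HRP anti-β2m and TMB at 450 nm against HLA-A*02:01 monomer standards (15–500 ng/ml).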

HLA-A*02:01 = biological target: T2, HLA-A*02:01 (human)
T2 construct: MHC monomer first loaded with a UV-sensitive peptide that is cleaved by UV light and exchanged for the test peptide
Outline: as §1

HLA-B*44:05 = biological target: T3, HLA-B*44:05 (human)
T3 construct: MHC monomer first loaded with a UV-sensitive peptide that is cleaved by UV light and exchanged for the test peptide
Outline: as §1

Binder | peptide exchange yield (HLA-B*08:01) [%] | other results
VLLMGPLHL [VLLMGPLHL (SEQ ID NO: 100)] | 20 to 50 | –
QILQHHVL [QILQHHVL (SEQ ID NO: 87)] | 50 to 75 | –
DLRNKIIAA [DLRNKIIAA (SEQ ID NO: 46)] | 50 to 75 | –
MYRKEQYL [MYRKEQYL (SEQ ID NO: 81)] | 20 to 50 | –
FLRVFTDSL [FLRVFTDSL (SEQ ID NO: 49)] | 50 to 75 | –
DQLLRHVM [DQLLRHVM (SEQ ID NO: 94)] | 50 to 75 | –
ELALRQTV [ELALRQTV (SEQ ID NO: 48)] | 20 to 50 | –
MPLKHYLL [MPLKHYLL (SEQ ID NO: 57)] | 20 to 50 | –
EVYLRMYQL [EVYLRMYQL (SEQ ID NO: 80)] | 50 to 75 | –
FDFRGKTKVF [FDFRGKTKVF (SEQ ID NO: 59)] | 20 to 50 | –
ILCGSRKMPL [ILCGSRKMPL (SEQ ID NO: 56)] | 20 to 50 | –
QKPRKKKL [QKPRKKKL (SEQ ID NO: 85)] | 20 to 50 | –
LMKEKIQEM [LMKEKIQEM (SEQ ID NO: 93)] | 50 to 75 | –
FILGREAGAL [FILGREAGAL (SEQ ID NO: 64)] | 20 to 50 | –
RLKVALSTL [RLKVALSTL (SEQ ID NO: 45)] | 50 to 75 | –
EPVNTNVVL [EPVNTNVVL (SEQ ID NO: 98)] | 20 to 50 | –
TIGLGLHSL [TIGLGLHSL (SEQ ID NO: 90)] | 20 to 50 | –
DLKKTRVL [DLKKTRVL (SEQ ID NO: 66)] | 20 to 50 | –
NLLMRNVL [NLLMRNVL (SEQ ID NO: 65)] | 20 to 50 | –
HSRVKLAQL [HSRVKLAQL (SEQ ID NO: 47)] | 20 to 50 | –
FVLLRSVDL [FVLLRSVDL (SEQ ID NO: 83)] | 50 to 75 | –
YITRQFVQF [YITRQFVQF (SEQ ID NO: 84)] | 20 to 50 | –
VLLSRRTAL [VLLSRRTAL (SEQ ID NO: 55)] | 20 to 50 | –

Binder | peptide exchange yield (HLA-B*08:01) [%] | other results
NVKIRFLE [NVKIRFLE (SEQ ID NO: 99)] | 20 to 50 | –
QVMPKTGL [QVMPKTGL (SEQ ID NO: 4)] | 20 to 50 | –
YVKRKTNVL [YVKRKTNVL (SEQ ID NO: 63)] | 20 to 50 | –
ELARQRLL [ELARQRLL (SEQ ID NO: 69)] | 20 to 50 | –
LPKKMKLL [LPKKMKLL (SEQ ID NO: 58)] | 20 to 50 | –
FMLAKEASL [FMLAKEASL (SEQ ID NO: 62)] | 20 to 50 | –
YVYANHFTEA (also called COL6A3-039) [YVYANHFTEA (SEQ ID NO: 291)] | – | binding result (HLA-A*02:01): binds
LPKLPVPPL [LPKLPVPPL (SEQ ID NO: 77)] | 50 to 75 | –
ESMLKTTL [ESMLKTTL (SEQ ID NO: 40)] | 20 to 50 | –
FVRPKLVTI [FVRPKLVTI (SEQ ID NO: 8)] | 50 to 75 | –
GLARIYSF [GLARIYSF (SEQ ID NO: 79)] | 20 to 50 | –
EEFLTPKKL [EEFLTPKKL (SEQ ID NO: 290)] | – | binding result (HLA-B*44:05): binds
MLHIKKAEV [MLHIKKAEV (SEQ ID NO: 60)] | 50 to 75 | –
DLKKLVDSL [DLKKLVDSL (SEQ ID NO: 43)] | 50 to 75 | –
HLTNRVLSL [HLTNRVLSL (SEQ ID NO: 44)] | 50 to 75 | –
VLRRKTLL [VLRRKTLL (SEQ ID NO: 42)] | 20 to 50 | –
RPKGTPPL [RPKGTPPL (SEQ ID NO: 70)] | 20 to 50 | –
RGALRTLSL [RGALRTLSL (SEQ ID NO: 41)] | 20 to 50 | –
NRQKRFVL [NRQKRFVL (SEQ ID NO: 6)] | 20 to 50 | –
RLKLRYEGL [RLKLRYEGL (SEQ ID NO: 74)] | 50 to 75 | –
ELILKHSL [ELILKHSL (SEQ ID NO: 52)] | 50 to 75 | –
DLKIPRYPV [DLKIPRYPV (SEQ ID NO: 68)] | 50 to 75 | –
DGHMKVFSL [DGHMKVFSL (SEQ ID NO: 78)] | 20 to 50 | –

Binder | peptide exchange yield (HLA-B*08:01) [%] | other results
SIKKELVVL [SIKKELVVL (SEQ ID NO: 61)] | 20 to 50 | –
MLLCLSLEL [MLLCLSLEL (SEQ ID NO: 88)] | 20 to 50 | –
DLSRRDVSL [DLSRRDVSL (SEQ ID NO: 54)] | 20 to 50 | –
MPMQDIKMIL [MPMQDIKMIL (SEQ ID NO: 91)] | 20 to 50 | –
DMNTKRAIHTL [DMNTKRAIHTL (SEQ ID NO: 67)] | 20 to 50 | –
YARLKNVLL [YARLKNVLL (SEQ ID NO: 75)] | 50 to 75 | –
HIRIKHTF [HIRIKHTF (SEQ ID NO: 71)] | 50 to 75 | –
HPRLKVNLL [HPRLKVNLL (SEQ ID NO: 76)] | 50 to 75 | –
ERRVKVSSL [ERRVKVSSL (SEQ ID NO: 51)] | 50 to 75 | –
SRNPRGFFL [SRNPRGFFL (SEQ ID NO: 95)] | 20 to 50 | –
TLKAMVQAW [TLKAMVQAW (SEQ ID NO: 92)] | 50 to 75 | –
AARLRPAL [AARLRPAL (SEQ ID NO: 7)] | 20 to 50 | –
TLRLLVAAL [TLRLLVAAL (SEQ ID NO: 50)] | 50 to 75 | –
MFPARGVPL [MFPARGVPL (SEQ ID NO: 73)] | 20 to 50 | –
SIRKRPML [SIRKRPML (SEQ ID NO: 82)] | 20 to 50 | –
RPIHHPLVL [RPIHHPLVL (SEQ ID NO: 86)] | 20 to 50 | –
STMPKILAL [STMPKILAL (SEQ ID NO: 5)] | 50 to 75 | –
VPYTKVQL [VPYTKVQL (SEQ ID NO: 89)] | 50 to 75 | –
DLRKLKRQL [DLRKLKRQL (SEQ ID NO: 53)] | 20 to 50 | –
RPAGVFEL [RPAGVFEL (SEQ ID NO: 96)] | 20 to 50 | –
LPLAHHIQL [LPLAHHIQL (SEQ ID NO: 72)] | 50 to 75 | –
LLKGKPRAL [LLKGKPRAL (SEQ ID NO: 9)] | 20 to 50 | –
